Data from patent US20120164068A1 (AVIPEP, published 2012).
Residue numbers refer to the chain shown, from its start.

B1: AVP07-63 anti-HER2 diabody (Cys at Kabat L8 and L12, CDR3H cysteines removed, N-terminal serine; Myc+(His)6 tag) (other)
chain: SVQLVQSGAEVKKPGESLKISCKGSGYSFTSYWIAWVRQMPGKGLEYMGLIYPGDSDTKYSPSFQGQVTISVDKSVSTAYLQWSSLKPSDSAVYFCARHDVGYASSSNAAKWPEYFQHWGQGTLVTVSSGGGGSQSVLTQPCSSCAAPGQKVTISCSGSSSNIGNNYVSWYQQLPGTVPKLLIYGHTNRPAGVPDRFSGSKSGTSASLAISGFRSEDEADYYCAAWDDSLSGWVFGGGTKLTVLG
notes: Diabody
B2: AVP07-68 anti-HER2 diabody (Cys at Kabat L8 and L12, CDR3H cysteines removed, N-terminal serine; (His)6 tag) (other)
chain: B1 chain
notes: Diabody; It is identical to AVP07-63 except that it carries only the C-terminal (His)6 tag
B3: AVP07-63-PEG24 L8-L12 Diabody (other)
VH-linker-VL polypeptide of the diabody: B1 chain
modifications: engineered cysteines at Kabat L8 and L12 (VL FR1) conjugated with maleimide-PEG24-methoxy
notes: also called PEGylated AVP07-63
B4: AVP07-17 anti-HER2 diabody (other)
chain: B1 chain with S1Q, A104C, A109C, C142P, S144V, C145S
notes: Diabody of two VH-Gly4Ser-VL chains from a human anti-HER2 mAb, with a lambda VL; also called AVP07-17 Avibody
B5: AVP07-71 anti-HER2 scFv (Cys at Kabat L8 and L12, CDR3H cysteines removed, N-terminal serine) (scFv)
scFv: SVQLVQSGAEVKKPGESLKISCKGSGYSFTSYWIAWVRQMPGKGLEYMGLIYPGDSDTKYSPSFQGQVTISVDKSVSTAYLQWSSLKPSDSAVYFCARHDVGYASSSNAAKWPEYFQHWGQGTLVTVSSGGGGSGGGGSGGGGSQSVLTQPCSSCAAPGQKVTISCSGSSSNIGNNYVSWYQQLPGTVPKLLIYGHTNRPAGVPDRFSGSKSGTSASLAISGFRSEDEADYYCAAWDDSLSGWVFGGGTKLTVLG
notes: Monomeric scFv, unconjugated

Experiments:
[1] = target: T1, recombinant HER2 ectodomain (UniProt P04626 23-652, limits assumed); experiment: column shift assay: size exclusion chromatography of the Avibody with and without soluble antigen (recombinant HER2 ectodomain), A280
T1 construct: extracellular domain

[2] = target: T1, recombinant HER2 ectodomain; experiment: as above; remark: listed apart in the source
[3] = target: T1, recombinant HER2 ectodomain; experiment: column shift assay: size exclusion chromatography of the PEG24 conjugate with and without soluble antigen (recombinant HER2 ectodomain), A280

| Binder | binding result [1] | other results |
| --- | --- | --- |
| B1 | binds | – |
| B2 | – | binding result [2]: binds |
| B3 | – | binding result [3]: binds |
| B4 | binds | – |
| B5 | binds | – |
